# In the supplement of paper PMC10724198:
# ± gives the standard deviation of the averaged measurements.
# System: Saccharomyces cerevisiae
# Experiment: protein stability index of tFT-peptide fusion (C-terminal peptide) (PSI (0-1 scale)); higher = more stable (slower turnover)
# Conditions: genetic background: wild type; temperature: 30 C
# Protocol: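 Multiplexed protein stability (MPS) profiling in S. cerevisiae. Random 12-aa peptides (tFT-X12 library) are fused to the C-terminus of a sfGFP-mCherry tandem fluorescent timer, after mCherry and a GGGS linker. Cells are FACS-sorted into 8 mCherry/sfGFP bins and deep-sequenced. The protein stability index (PSI) is the read-weighted bin average, scaled from 0 (unstable) to 1 (stable). Only peptides with >10 reads are reported; cells were grown at 30 °C in SC-His with glucose.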
# 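Note: PSI is a weighted mean of sequencing reads over stability bins, variants kept only with over 10 reads, mCherry proximal and sfGFP distal, peptide attached via GGGS linker.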
row,Sequence,protein stability index
1,GGLACTLAAFYL,0.733 ± 0.047
2,GGLGFVGGVRVQ,0.6705 ± 0.00086
3,GGLICRHGVGRG,0.705 ± 0.024
4,GGLRRMGVRPCA,0.715 ± 0.21
5,GGLSGGMRIEDS,0.686 ± 0.028
6,GGLVTSGGWRCA,0.71 ± 0.065
7,GGLWLCFVPEVM,0.563 ± 0.0077
8,GGMAWGPVCGAG,0.6906 ± 0.0018
9,GGNRRIKEKSRL,0.785 ± 0.016
10,GGPESMDILRFR,0.62 ± 0.069
11,GGPPSPPFFDAV,0.741 ± 0.081
12,GGPTCSSSCDPV,0.67 ± 0.038
13,GGRCGEGLVREG,0.702 ± 0.021
14,GGRGGEGRGGSG,0.658 ± 0.018
15,GGRGPSAVGSGV,0.74 ± 0.085
16,GGRGRGMWGIFG,0.681 ± 0.0096
17,GGRGRWEMVGRT,0.7 ± 0.021
18,GGRGSGLVGCSL,0.6 ± 0.065
19,GGRGVVVVQGAG,0.6978 ± 0.0013
20,GGRGWRSGTEGE,0.675 ± 0.013
21,GGRGWWRGTGSG,0.719 ± 0.056
22,GGRIRLLTYFGR,0.601 ± 0.042
23,GGRLGRGVVRGW,0.704 ± 0.011
24,GGRRVWAGRTGV,0.734 ± 0.077
25,GGRSGGWCGCWG,0.711 ± 0.032
26,GGRVAGSMGGGG,0.719 ± 0.056

row,Sequence,protein stability index
1,GGRVLKFLLGRL,0.668 ± 0.15
2,GGRVWGAVGAGP,0.627 ± 0.082
3,GGSALGCLCRWM,0.823 ± 0.029
4,GGSEEGGKAAKT,0.652 ± 0.015
5,GGSGGAVEERGG,0.6573 ± 0.0013
6,GGSRGVGASEEC,0.6515 ± 0.005
7,GGSRRGRRLLTQ,0.699 ± 0.037
8,GGTGWVGEMGGR,0.796 ± 0.069
9,GGTHCRVCCVLF,0.659 ± 0.02
10,GGVATQARQTCN,0.742 ± 0.17
11,GGVFTHLEKAVD,0.649 ± 0.046
12,GGVGAFAARRFA,0.634 ± 0.012
13,GGVGCLGVFSVG,0.7 ± 0.013
14,GGVGGAGGRNRG,0.674 ± 0.014
15,GGVGGCARVWPR,0.654 ± 0.061
16,GGVGGGAAEGAV,0.758 ± 0.024
17,GGVGVGRGVCVF,0.6187 ± 0.0012
18,GGVLLPGFSHLL,0.7133 ± 0.0068
19,GGVRRSPRAILR,0.705 ± 0.014
20,GGVSCYVHRRAR,0.688 ± 0.06
21,GGVSGEGFSWVG,0.66987 ± 0.0004
22,GGVVACGLRVAS,0.62 ± 0.058
23,GGVVGGRAGRGG,0.617 ± 0.033
24,GGVVGVEWGAVG,0.626 ± 0.015
25,GGVVRGVWVGRG,0.725 ± 0.028
26,GGVYVASQGTFV,0.673 ± 0.021

row,Sequence,protein stability index
1,GGWAGLGAPGVS,0.697 ± 0.028
2,GGWCGGGGAWSG,0.6985 ± 0.0027
3,GGWGGGCGACVV,0.72 ± 0.073
4,GGWGGRSGTEGE,0.686 ± 0.013
5,GGWGPGALEVGT,0.6578 ± 0.0018
6,GHAPSSCPPPPR,0.692 ± 0.062
7,GHCFCRLLPLHW,0.755 ± 0.025
8,GHCVALGNRVLH,0.665 ± 0.068
9,GHDWRNPRLVED,0.645 ± 0.062
10,GHRAEGMWSGGL,0.751 ± 0.098
11,GHRRLGNRWSVG,0.671 ± 0.035
12,GIDKTNHKQEKN,0.691 ± 0.0085
13,GIGFHSREIGER,0.66 ± 0.055
14,GIGGNWAVSRNC,0.73 ± 0.12
15,GIGKADSKRERS,0.652 ± 0.00097
16,GIKKKKKKQDKK,0.728 ± 0.076
17,GIMPVRENCGVF,0.6422 ± 0.0048
18,GIPYALVTPPFP,0.7724 ± 0.0077
19,GIRKNIDNNEKI,0.686 ± 0.03
20,GITSGRAVGGRA,0.713 ± 0.011
21,GIVCGDADMEGG,0.676 ± 0.051
22,GKALESLEGQFT,0.728 ± 0.019
23,GKEGGRERVANE,0.639 ± 0.091
24,GKFTGPLGARSR,0.658 ± 0.032
25,GKKPNSGKNKKK,0.694 ± 0.049
26,GKMLSRPRKTEN,0.711 ± 0.03

row,Sequence,protein stability index
1,GKNKSKKEKKEK,0.668 ± 0.032
2,GKRETQVEEGAR,0.765 ± 0.11
3,GKRYEKVGVEWW,0.765 ± 0.12
4,GKTQLIKNIQNI,0.568 ± 0.023
5,GKVCGRAEYPQT,0.719 ± 0.035
6,GKYEALGRFSPG,0.71 ± 0.015
7,GKYQQGFQKVTR,0.668 ± 0.025
8,GLAAGGAVMPPL,0.7188 ± 0.0064
9,GLAELKSYDGEG,0.696 ± 0.034
10,GLAQRAIKNRHR,0.679 ± 0.11
11,GLARSICRNYGL,0.706 ± 0.014
12,GLASLTGVPRCW,0.723 ± 0.027
13,GLCACTSFLVSW,0.697 ± 0.028
14,GLCAVWSGAGRC,0.7 ± 0.037
15,GLCSEETPALFY,0.7173 ± 0.0043
16,GLDDLMPGRVLW,0.666 ± 0.015
17,GLDEGCRGGEEV,0.673 ± 0.0092
18,GLDNNKCTEKKI,0.665 ± 0.13
19,GLEPSGLSGGSW,0.672 ± 0.041
20,GLGEWGGRGVCG,0.692 ± 0.015
21,GLGGRGGAVGEW,0.67252 ± 0.0004
22,GLGVMGVGCVGS,0.653 ± 0.054
23,GLGVVSVWSGGL,0.703 ± 0.044
24,GLLGVRVVAGLG,0.625 ± 0.032
25,GLMSVRYSGTGV,0.6743 ± 0.006
26,GLNTKAQSRIPM,0.742 ± 0.018

row,Sequence,protein stability index
1,GLPPLAMPALSI,0.72 ± 0.057
2,GLPPLLSPVPLR,0.646 ± 0.057
3,GLPSHPAPPSTN,0.657 ± 0.11
4,GLPTFLTDSSFW,0.725 ± 0.039
5,GLPWRRVGGGAG,0.644 ± 0.013
6,GLRCSRVSFFFW,0.64 ± 0.039
7,GLRRWLSTAMRR,0.7339 ± 0.0033
8,GLSALVVCPSWG,0.65062 ± 0.00034
9,GLSRYLTCNNLV,0.674 ± 0.0075
10,GLSVSGLWGVFG,0.629 ± 0.2
11,GLTGAATVPHSA,0.732 ± 0.013
12,GLVRGGCGTVGG,0.774 ± 0.18
13,GLWCVGGGAVGV,0.6818 ± 0.004
14,GLYTRLYIPRPC,0.739 ± 0.033
15,GMRRGGGWCRGW,0.674 ± 0.027
16,GMTYEKIKNVIE,0.651 ± 0.025
17,GNAGGFRSLISW,0.663 ± 0.065
18,GNGENKVIVRKS,0.696 ± 0.045
19,GNGIRLIPPAYS,0.725 ± 0.028
20,GNKMYRSREGNC,0.6709 ± 0.003
21,GNTQSIEQALLV,0.752 ± 0.028
22,GPFDVLPEPNPG,0.6348 ± 0.0037
23,GPFRRLRCTAFI,0.713 ± 0.059
24,GPGCDDDASGSV,0.686 ± 0.013
25,GPGFRSGVELVW,0.759 ± 0.069
26,GPGGTVDLIWGS,0.703 ± 0.034

row,Sequence,protein stability index
1,GPGRIPLTSALP,0.63968 ± 0.00049
2,GPHAPPPSFPAP,0.718 ± 0.074
3,GPPPPPPPASPH,0.715 ± 0.1
4,GPPPPSPRPTRR,0.723 ± 0.031
5,GPPPRCKYLRAS,0.6348 ± 0.00079
6,GPPTKLTLNQQK,0.6286 ± 0.00082
7,GPRPATTSPLPT,0.721 ± 0.2
8,GPRRLGGTSLGI,0.651 ± 0.098
9,GPRRLNAYADPF,0.722 ± 0.082
10,GPSPLTMPGSPS,0.683 ± 0.064
11,GPSRKCPFDVVS,0.6654 ± 0.0021
12,GPTGPATQNDDS,0.671 ± 0.018
13,GPVLAVTRIVCK,0.552 ± 0.0096
14,GPYPPFSPPPLS,0.697 ± 0.072
15,GQGACWLCVGGR,0.685 ± 0.02
16,GQKKGRGGEREE,0.676 ± 0.03
17,GQLGGRGNRRVA,0.718 ± 0.041
18,GQQILGGRSLEG,0.63 ± 0.035
19,GQQVDKMLWDEV,0.715 ± 0.025
20,GQVAKVKVRKKK,0.755 ± 0.052
21,GRCFGGVVRGAL,0.655 ± 0.051
22,GRCVCVLFWHVS,0.571 ± 0.0078
23,GRDCSSHFIVPL,0.713 ± 0.029
24,GRDGQTLYLVLL,0.686 ± 0.03
25,GREGELDKKKWH,0.723 ± 0.051
